Results on eight molecules are retold here after patent US20020119121A1, “Compositions and methods for inducing specific cytolytic T cell responses” (priority 2000, published 2002).

Data set [1] concerns JY (A2+) and 221 (A2-) 51Cr-labeled target cells.
Data set [2] deals with class I molecules, TAP transporters, PA28, immunoproteasomes in monocytes/DC. The data set can be described thus: Expression of class I molecules, TAP transporters, PA28 and immunoproteasomes by flow cytometry and immunoprecipitation. Type of data set: cell-based, human. The settings on record: treatment of immature DC. An excerpt: To determine if the differences observed between DC treated with LPS, TNF-α, or CD40L in inducing CTL activity of CD8^+ T cells were due to differences in antigen processing and presentation capacity of monocytes, immature DC, and mature DC, the expression levels of class I molecules, TAP transporters, PA28 (an immunoproteasome regulator), and immunoproteasomes were examined by flow cytometry (FACScan, Benton Dickenson, Milano, Italy) and immunoprecipitation with appropriate antibodies. […] The level of expression of class I molecules was further increased by two fold upon treatment with LPS, CD40L, or TNF-α.
(Flow cytometry measures light scatter and fluorescence of single cells or particles in a stream.)

The subject of data set [3] is JY (A2+) and 221 (A2-) 51Cr-labeled target cells. The data set can be described thus: 51Cr-release assay of HLA-A2 specific CTL activity induced in purified CD8+ TL by dendritic cells.
Data set [4] relates to 51Cr-labeled recipient LB. The data set can be described thus: Inhibition of LB-directed cytotoxicity by granule exocytosis pathway blockers. The settings on record: CMA 1, 10, 100 nM/L for 2 h or SrCl2 5, 25, 50 mM/L for 18 h; one mean given for either reagent; FIG. 5 E:T 5:1. The source says: Cytolytic activity of a CTL refers to the secretion of the contents of secretory granules into the immediate vicinity of the target cell to which it attaches. The granules contain perforins, various lysosomal enzymes, and calcium binding proteins that destroy the target cell.

As for “IL-4: lymphokine added to the CTL induction culture”, the “effect of addition on cytotoxic activity” value in data set [1] was “no effect”.
As for IL-7: cytokine interleukin-7, in data set [1], the “effect on cytotoxic activity induced by immature DC” value is given as “no effect” and the “enhancement of cytotoxic activity” value was “approximately three fold”.
Turning to tumor necrosis factor-α [TNF-α], in data set [2], the “further increase of expression of class I molecules” value (from here on “further increase”) was “two fold”.
IL-12: cytokine interleukin-12: in data set [1], the “substitution for CD40L in inducing cytotoxic activity” value is “two of the four”.
With lipopolysaccharide [LPS], the “further increase” value in data set [2] is “two fold”. Also, the “induction of cytotoxic activity from purified CD8+ T cells by treated DC” value in data set [3] (DC treated with LPS 20 ng/ml, TNF-α 20 ng/ml (40 h) or irradiated CD40L-transfected cells, FIG. 1A) is reported as “only CD40L treated DC were capable of inducing cytotoxic activity”.
Take “IL-6: lymphokine added to the CTL induction culture”: the “effect of addition on cytotoxic activity” value in data set [1] was “no effect”.
As for `C/C=C/[C@H]1O[C@@](O)([C@@H](C)[C@H](O)[C@H](C)[C@H]2OC(=O)/C(OC)=C/C(C)=C/[C@@H](C)[C@@H](O)[C@@H](CC)[C@@H](O)[C@H](C)C/C(C)=C/C=C/[C@@H]2OC)C[C@@H](O[C@H]2C[C@@H](O)[C@H](OC(N)=O)[C@@H](C)O2)[C@@H]1C` [CMA, concanamycin A], the “mean inhibition of LB-directed cytotoxicity” value in data set [4] turned out to be 87%.

B1: CD40L: CD40 Ligand, supplied as irradiated CD40L-transfected cells added to immature DC; dendritic cell maturation factor (protein, UniProt P29965 1-261, looked up)
chain: MIETYNQTSPRSAATGLPISMKIFMYLLTVFLITQMIGSALFAVYLHRRLDKIEDERNLHEDFVFMKTIQRCNTGERSLSLLNCEEIKSQFEGFVKDIMLNKEETKKENSFEMQKGDQNPQIAAHVISEASSKTTSVLQWAEKGYYTMSNNLVTLENGKQLTVKRQGLYYIYAQVTFCSNREASSQAPFIASLCLKSPGRFERILLRAANTHSSAKPCGQQSIHLGGVFELQPGASVFVNVTDPSQVSHGTGFTSFGLLKL
modifications: full-length expressed on irradiated transfected cells
notes: CD40 Ligand, supplied as irradiated CD40L-transfected cells added to immature DC; dendritic cell maturation factor
Regarding B1, the “further increase” value in data set [2] is reported as “two fold”. Also, the “CD8+ cell populations in which CTL activity was detected” value in data set [3] (CD40L-treated DC, four CD8+ populations tested) is reported as “three of the four”.
